Test: yeast display, Sf9 membrane polyspecificity reagent, FACS + sequencing; frameworks hold sequencing errors
Procedure, shortened: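 Nanobodies from a synthetic yeast display library (Saccharomyces cerevisiae BJ5465), induced 36–48 hours with galactose, were stained 1 hour at 4 °C with 10% biotinylated, detergent-solubilized Sf9 membrane reagent, enriched on streptavidin microbeads, then FACS-sorted. Anti-HA (expression) and streptavidin (reagent binding) fluorescence set low and high (top ~1%) gates. Polyreactivity labels come from the gate of origin. Genes were colony-PCR amplified, MiSeq 2 × 250 sequenced and filtered by CDR length.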

Row | Sequence | polyreactivity (PSR sort gate)
1 | QVQRVESGGGLVQAGGSLRLSCAASGSIFASNAMGWYRQAPGKERELVADISGTTGSTYYADSVKGRFTISRDNAKNTVYLQMNSLKPEDTAVYYCAADLVWVSTSYYYWGQGTQVTVSS | low polyreactivity
2 | QVQLVESGGGLVQAGGSLRLSCAASGIIFYWNAMGWYRQAPGQEREFDASISGSGGSTYADSVKGRFTISRDNAMNTVYFQMKSLKPEDTAVYYCAVLYWRPGYDYLGQGTQVTVSS | high polyreactivity
3 | QVQLVESGGGLVQAGGSLRLSCASSGSIFGGYAMGWYRQAPGKERELVAAITSSGGLTYYADSVKGRFTISRDNAKNTVYLQMNCLKPEDTAVYYCAAVTVAGYDYWGQGTQVTVSS | high polyreactivity
4 | QVQLVESGGGLVQAGGSLRLSCAASGRIFAPYDMGWYRQAPGKERELVASITSGGSTNYTDSVKGRFTISRDNAKNTVYLQMNSLKPEDTAVYYCNTAKISEPTDPLQRVWGGTYDYWGQGTQVTVSS | low polyreactivity
5 | QVQLVESGGGLVQAGGSLSLSCAASGITFNIYVMGWYRQAPGKERELVAAITDSGGTTYYADSVKGRFTISRDNAKNTVYLQMNSLKPEDTAVYYCAAEPFYSWWWWGDYWGQGTQVTVSS | high polyreactivity
6 | QVQLVESGGGLVQAGGSLRLSCAASGGTIAFNGMGWYRQAPAKERELVAAITWRSGSTYYADSVKGRFTISRDNAKNTVYLQMNSLKPEDTAVYYCAARLYRYTPFDYWGQGTQVTVSS | high polyreactivity
7 | QDQLVESGGGFVQAGGSLRLSCAASGFIFVTYAMGWFRQAPGKERELVAAITWSTTSTYYADSVKGRFTISRDNAKNTVYLQMNSLKPDETAVYSCAKYYFQYKHDYWGQGTQVTVSS | low polyreactivity
8 | QVQLVESGGGLVQAGGSLRLSSAASGSIFRYNAMGWYRPAPGKERELVAAITSSGGSTYYADSVKGRFTISRDNAKNTVYLQMNSLKPEDTAVYYCAAVRRRVHYPYDYWGQGTQVTVSS | high polyreactivity
9 | QVQLVESGGGLVQAGGSLRLSCAASGSTFLFYTMGWYRQAPGKERELVAAINSGGSTNYADSVKGRFTISRDNAKNTVYLQMNSLKPEDTAVYYCNADRTYVYKYTYSFYYWGQGTQVTVSS | low polyreactivity
10 | QVQLVESGGGLVQAGGSLRLSCAASGFTFGRYAMGWYRQAPGKERELVATITRTGSTNYADSVKGRFTISRDNAKNTVYLQMNSLKPEDTAVYYCNAGPDRRVSYYRLLDHWGQGTQVTASS | low polyreactivity
11 | QVQLVESGGGLVQAGGSLRLSCAASGSTFWAYALGWYRHAPGKERELVAAITTGGGRTFYADSVMGRFTISRDNGKNTVYLQLNSLIPEDTAVYYCGAVSQSYRMYYWGQGTQVTVSS | low polyreactivity
12 | QVQLVESGGGLVQAGGSLRLSCAASGRTFSANTMGWYRQAPGKERELVAAISKSGGSTYYADSVKGRFTISRDNAKNTVYLQMNSLKPEDTAVYYCAAARNVYRGRVYWGRYDYWGQGTQVTVSS | high polyreactivity
13 | QVQLVESGGGLVQAGGSLRLSCAASGSTFSYYTMGWYRQSPGKERELVAVISTSGGNTYYADSVKGRFTISRDNAKNTVYLQMNSLKPEDTAVYYCAAAYPRVTYKNGYYWGQGTQVTVSS | high polyreactivity
14 | QVQLVESGGGLVQAGGSLRLRCAASGSIFFHNAMGWYRQAPVKERELVATINRSDGTYYADSVKGRFTISRDNAKNTVYFQMNSLKPEDTAVYYCAVDHSFNDELDYWGQGTQVTVSS | low polyreactivity
15 | QVQLVESGGGLVQAGGSLRLSCGASGRTFRRNAMGRYRQAPGKERELVAAIRWSSGSTYYADSVKGRFTISRDNAKNTVYLQMNSLKPEDTAVYYCAKRQWGGRESFDYWGQGTQVTVSS | low polyreactivity
16 | QVQLVESGGGLVQAGGSLRLSCAASGSTFVRYAMGWYRQAPGKEWELVARISGRSGSTYYADSEKGRFTISRDNAKNTVYLQMNSLKPEDTAVYFCAARAWYRVYAYDVWGQGTQVTVSS | high polyreactivity
17 | QVQLVESGGGLVQAGGSLRLSCAASGRTFYYYAMGWYRQAPGKERELVARISYSGSNTYYADSVKGRFTISRDNAKNTVYLQMNSLKPEETAVYYCAAGYLVWRDSATLDYWGQGTQVTVSS | high polyreactivity
18 | QVQLVESGGGLVQAGGSLRLSCAASGSTFVQYAMGWYRQAPGKERELVAAITSGGRTNYADSVKGRFTISRDNAKYTVYLQMNSLKPEDTAVYYCAARYGSNSPRGYEYYYWGQGTQVSVSS | low polyreactivity
19 | QVQLVESGGGLVQAGGSLRLSCAASGSIRYNAMGWYRQAPGKERELVAAISYRGGTTYYADSVKGRYTISRDNAKNTVYLQMNSLKPEDTAVYYCNAGVRAYGYSAKYYYWGQGTQVTVSS | high polyreactivity
20 | QVQLVESGGGLVQAGGSLRLSCAASGFIFRLNTMGWYRQAPGKERELVATISSGGSTNYADSVKGRFTISRDNAKITVYLQMNSLKPEDTAVYYCAKKKTRYGGSYNYWGQGTQVTVSS | high polyreactivity
21 | QVQLVESGGGLVQAGGSLRLSCAASGSILYRYTMGWYRQAPGKERELVAAITKRGGRTYYADSVKGRFTISRDNAKNTVYLQMNSLKPEDTAVYYCAAKYYTGGSFEMYYWGQGTQVTVSS | high polyreactivity
22 | QVQLVESGGGLVQAGGSLRLSCAASGSIFSYYAMGWYRQAPGKERELFADINLDDGRTYYADSVKGRFTISRDNAKNTVYLQMNSLKPEDTAVYYCAADEFYSFRYLFGPTFDYWGQGTQVTVSS | high polyreactivity

Row | Sequence | polyreactivity (PSR sort gate)
23 | QVQLVESGGGLVQAGGSLRLSCAASGFIFYAYAMGWYRQAPGKERELVAGISDSGASTYADSVKGRFTISRDNAKNTVYLQMNSLKPEDTAVYYCATTGYLSTKVYDEYGYWGQGTQVTVSS | low polyreactivity
24 | QVQLVESGGGLVQAGGSLRLSCAASGSIFVGYAMGWYRQAPGKETELVAAISTRGGSTYYAETVKGRFTISRDNAKNTVYLQMNILKPEDNAVYYCAADYLDSTYGYVYGWDDYWGKGTQVTVSS | low polyreactivity
25 | QVQLVESGGGLVQAGGGLRLSCAASGRTIPTYAMGWYRQAPGKERELVATITSAGSTNYADSVKGRFTISRDNAKNTVYLQMNSLKPEDTAVYYCAARRRLAWGQGTQVTVSS | high polyreactivity
26 | QVQLVESGGGLVQAGGSLRLSCAASGFIFYYYAMGWYRQATGKERELDASISSDGSTYYADSVKGRFTISRDNAKNTVYLQMNSLKPEDTAVYYCNADRYYPDDLSDGVGTYDYWGQGTQVTVSS | low polyreactivity
27 | QVQLVESGGGLVQAGGSLRLSCAASGRTFHKNAMGWYRQAPGQERELVAAISGSGGSTYYADSVKGRFTISRDNAKNTVYLQMNSLKPEDTAVYYCAADSSYYEEDYWGQGNQVTVSS | high polyreactivity
28 | QFQLVESGGGLVQAGGSLRLSCAASGSTFTANAMGWYRQSPGKERELVAAITNSDGSTYYADSVKGRFTISRDNAKNTVYLQMNSLKPEDTAVYYCAKDYYACYWEMDYWGQGTQVTVSS | low polyreactivity
29 | QVQLVESGGGLVQAGGSLRLSCAASGYIFRIYAMGWYRQAPGKERELVARISSGGGTNYADSVKGRFTISRDNAKNTVYLQMNSLKPEDTAVYYCNAGYGSQRGGVFFYRMGYWGQGTQVTVSS | high polyreactivity
30 | QVQLVESGGGLVQAGGSLRLSCAASGRIFYAYAMGWYRQAPGKERELVAAITARGGSTYYADSVKGRFTISRDNAKTTVYLQMNSLKPEDTAVYYCAKDTLLETGYEYWGQGTQVTVSS | high polyreactivity
31 | QVQLVESGGGLVQAGGSLRLSCAASGRTFRYNAMGWYRQAPGKERELVAAITQSGGSTYYADSVWGRFTISRDNAKNTVYLQMNSLKPDDTAVYYCAKVRERINYDYWGQGTQVTVSS | low polyreactivity
32 | QVQLVESGGGLVQAGGSLRLSCAASGIIFKYYAMGWSRQAPGKERELVAAISWTGDSTYADSVKGRFTISRDNAKNTVYLQMNSLKPEDTAVYYCAVAFRRVRSLGEGYWGQGTQVTVSS | low polyreactivity
33 | QVQLVESGGGLVQAGGSLRLSCAASGSIFGRYAMGWYRQAPGKERELVAAISANGGSTYYADSVKGRFTISRDNAKNTVYLQMNSLKPEDTAVYYCAAGSTRGYKLGYWGQGTQVTVSS | high polyreactivity
34 | QVQLVESGVGLVQAGGSLRLSCAASGSIFQYNAMGWYRQAPGKERELVAAITSTGDTNYADSVKGRFTISRDNAKNTVYLQMNSLKAEDTAVYFCAADVYGTVRRVGWYYVGEGYDYWGQGTQVTVSS | low polyreactivity
35 | QVQLVESGGGLVQAGGSLRLSCAASGGTFYYYAMGWYRQAPGKERELVAAITRSGGNTYYADSVKGRFTISRDNAKNTVYLQMNSLKPEDTAVYYCAAPFVKFVGSLVYAGYDSWGQGTQVTVSS | low polyreactivity
36 | QVQLVESGGGLVQAGGSLRLSCAASGRIFKYYAMGWYRQAPGKERELVAAISQNGGRTYYADSVKGRFTISRDNAKNTVYLQMNSLKPEDTAVYYCAAGWRSYAGYYQGEFGYWGQGTQVTVSS | high polyreactivity
37 | QVQLVESGGGLVQAGGSLRLSCAASGIIFTSNTMGWYRQAPGKEREFVASINWNGSSTYADSVKGRFTISRDNAKNTVYLQMNSLKPEDTAVYYCAAEASPRLYRKYDYWGQGTQVTVSS | low polyreactivity
38 | QVQLVESGGGLVQAGGSLRLSCAASGFIFKGNAMGWYRPAPGKERELVAAISSRGGSTYYADSVKGRFTISRDNAKNTVYLQMNSLKPEDTAVYYCATRVYWRNDYWGQGTQVTVSS | high polyreactivity
39 | QVQLVESGGGLVQAGGSLRLSCAASGSISYLYAMGWYRQAPGKERELVAAISRSGASTYYADSVKGRFTISRDNAKNTVYLQMNSLKPEDTAVYYCAAYKIWGRVRYDYWGQGTQVTVSS | low polyreactivity
40 | QVQLVESGGGLVQAGGSLRLSCAASGRTFVRYAMGWYRQAPGKERELVAAISWSGGSTYYADSVKGRFTISRDNAKNTVYLQMNSLKPEDTAVYYCATLSAWKASSYDYWGQGTQVTVSS | high polyreactivity
41 | QVQLVESGGGLVQAGGSLRLSCAASGRIFIHYAMGGYRHAPGKERELVAAISASGGTTNYADSVKGRFTISRDNAKNTVYLQMNSLKPEDTAVYYCNKDYPQNPLPASSYYLGRFDYWGQGSQVTVSS | high polyreactivity
42 | QVQLVESGGGLVQAGGSLRLSCAASGYIFTYYAMGWYRQAPGKERELVAAISTSGTSTYYADSVKGRFTISRDNAKNTVYLQMNSLKPEDTAVYYCAKRSGARHRLMDYWGQGTQVTVSS | low polyreactivity
43 | QVQLVESGGGLVQAGGSLRLSCAPSGRTFQLYAMGWSRQAPGKERELVAGITITGGSTYYADSVKGRFTISRDNAKNTVYLLMNSLKPEDTAVYYCNKPRFSERYGMGYWGQGTQVTVSS | low polyreactivity
